Results: patent US20240376454A1 (CORNELL UNIVERSITY, published 2024)

Legend:
[1] = biological target: T1, Pfu Cas3 HD L139A/HEL V418A (Pyrococcus furiosus, UniProt Q8U336 1-237, limits assumed); test: Strep-tag pull-down, SDS-PAGE
T1 construct: tags as for m8
T1 sequence 1: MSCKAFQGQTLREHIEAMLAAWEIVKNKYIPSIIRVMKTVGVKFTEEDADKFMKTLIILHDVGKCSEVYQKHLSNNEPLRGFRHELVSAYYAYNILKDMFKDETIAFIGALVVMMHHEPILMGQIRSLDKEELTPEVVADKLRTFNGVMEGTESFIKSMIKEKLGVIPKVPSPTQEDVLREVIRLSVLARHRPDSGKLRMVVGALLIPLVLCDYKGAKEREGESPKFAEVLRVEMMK
T1 sequence 2: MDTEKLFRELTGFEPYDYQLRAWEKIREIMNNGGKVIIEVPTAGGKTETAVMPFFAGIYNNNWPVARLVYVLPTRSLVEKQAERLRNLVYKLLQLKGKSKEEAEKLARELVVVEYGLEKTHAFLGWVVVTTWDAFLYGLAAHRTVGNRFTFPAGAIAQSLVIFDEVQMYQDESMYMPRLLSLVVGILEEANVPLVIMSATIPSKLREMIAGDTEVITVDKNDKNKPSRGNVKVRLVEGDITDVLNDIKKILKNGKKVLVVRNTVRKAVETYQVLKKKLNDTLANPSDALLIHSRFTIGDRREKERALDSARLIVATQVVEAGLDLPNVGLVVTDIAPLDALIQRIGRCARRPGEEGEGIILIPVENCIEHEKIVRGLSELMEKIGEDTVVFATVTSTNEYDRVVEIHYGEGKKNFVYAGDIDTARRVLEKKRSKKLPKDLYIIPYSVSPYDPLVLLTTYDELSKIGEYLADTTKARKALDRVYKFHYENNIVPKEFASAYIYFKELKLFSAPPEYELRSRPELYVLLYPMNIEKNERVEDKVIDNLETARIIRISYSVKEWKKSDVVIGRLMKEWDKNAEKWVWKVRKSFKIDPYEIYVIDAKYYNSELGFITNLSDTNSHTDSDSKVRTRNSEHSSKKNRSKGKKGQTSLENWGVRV
From the text: (§1) Binding of Pfu Cas3 effectively eliminates the severe domain movements in Cas8a NTD, and rigidifies the rest of the inner belly subunits in place (FIG. 3A-B). The lockdown effect is achieved through an extensive Cas3-Cas8a interface that spans across the NTD and CTD of Cas8a, which prevents the hinge motion in between the two domains. […] To validate structural observations, we mutagenized three conserved interface residues on Cas3 individually and in combination, two from the HD nuclease (V187E, L139A) and one from the helicase subunit (V418A). In Strep-tag pull-down experiments, each mutation reduced the affinity between Cas3 and Cascade, albeit to various extents. In particular, Cas3 HD V187E and HD L139A/HEL V418A completely disrupted Cas3 interaction with Cascade (FIG. 19). Thus, in embodiments, any Cas3 sequence that is at least 85% similar to a Pfu Cas3 may retain the described wild type amino acids.
(§2) 15 μg of strep-tagged Pfu Cascade and 15 μg of untagged Pfu Cas3 complex were mixed and incubated with 10 μL of strep resin at 4° C. for 30 min in a binding buffer (50 mM HEPES pH7.5, 10% glycerol, 300 mM NaCl), in a total assay volume of 50 μL. […]

Pfu Cas3 HD V187E = biological target: T2, Pfu Cas3 HD V187E (Pyrococcus furiosus, UniProt Q8U336 1-237, limits assumed); test: Strep-tag pull-down, SDS-PAGE
T2 construct: The pull-down method speaks of an 'untagged Pfu Cas3 complex'; also called Cas3 V187E
T2 sequence 1: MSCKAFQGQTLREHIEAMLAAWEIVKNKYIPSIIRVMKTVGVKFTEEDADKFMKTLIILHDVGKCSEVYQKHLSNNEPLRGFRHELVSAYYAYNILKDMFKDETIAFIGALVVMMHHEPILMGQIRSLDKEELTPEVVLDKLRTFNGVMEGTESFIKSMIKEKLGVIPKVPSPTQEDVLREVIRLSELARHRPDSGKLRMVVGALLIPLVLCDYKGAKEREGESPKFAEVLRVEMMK
T2 sequence 2: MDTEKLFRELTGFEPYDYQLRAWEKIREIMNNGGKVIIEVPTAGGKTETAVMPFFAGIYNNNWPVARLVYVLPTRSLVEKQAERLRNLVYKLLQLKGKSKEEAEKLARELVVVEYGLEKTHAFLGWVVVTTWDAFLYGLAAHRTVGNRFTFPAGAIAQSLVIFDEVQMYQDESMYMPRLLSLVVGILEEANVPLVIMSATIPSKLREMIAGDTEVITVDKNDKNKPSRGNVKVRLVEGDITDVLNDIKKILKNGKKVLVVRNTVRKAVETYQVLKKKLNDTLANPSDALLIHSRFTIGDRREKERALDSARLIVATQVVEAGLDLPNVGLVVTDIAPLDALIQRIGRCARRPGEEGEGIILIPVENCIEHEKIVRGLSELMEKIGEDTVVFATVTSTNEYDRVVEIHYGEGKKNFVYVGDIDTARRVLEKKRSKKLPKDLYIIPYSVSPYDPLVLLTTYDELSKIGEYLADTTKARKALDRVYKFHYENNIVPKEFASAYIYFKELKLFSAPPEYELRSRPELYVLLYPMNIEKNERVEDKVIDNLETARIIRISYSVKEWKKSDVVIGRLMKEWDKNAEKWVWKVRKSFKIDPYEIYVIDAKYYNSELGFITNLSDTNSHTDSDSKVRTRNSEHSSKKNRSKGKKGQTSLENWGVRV
From the text: as §1, §2

binding result [1]: no binding
binding result (Pfu Cas3 HD V187E): no binding
B1: Pfu Cascade (other)
chain 1: not shown
chain 2: MDILLVCLRFPFFSVAKRSYQVRTSFLLPPPSALKGALAKGLILLKPEKYASSSLDEAALKAIKEIESKLVDIKAVSVAPLSPLIRNAFLLKRLRNLESGSNAEKSDAMRREYTFTRELLVAYIFKNLTQEEKNLYLKAAMLIDVIGDTESLATPVWASFVKPEDKKAPLAFSAPYTEIYSLLSSKIQAKGKIRMYIEKMRVSPEYSKTKGPQEEIFYLPIEERRYKRIVYYARTIYPPEVEKALTVDGEVLGIWIPKNSSESGSHHHHHHH
chain 3: MMYVRISGRIRLNAHSLNAQGGGGTNYIEITKTKVTVRTENGWTVVEVPAITGNMLKHWHFVGFVDYFKTTPYGVNLTERALRYNGTRFGQGETTATKANGATVQLNDEATIIKELADADVHGFLAPKTGRRRVSLVKASFILPTEDFIKEVEGERLITAIKHNRVDVDEKGAIGSSKEGTAQMLFSREYATGLYGFSIVLDLGLVGIPQGLPVKFEENQPRPNIVIDPNERKARIESALKALIPMLSGYIGANLARSFPVFKVEELVAIASEGPIPALVHGFYEDYIEANRSIIKNARALGFNIEVFTYNVDLGEDIEATKVSSVEELVANLVKMVGGKE
chain 4: MGGWIRNIGRYLSYLVDDTFEEYAYDVVDGIAKARTQEELLEGVYKALRLAPKLKKKAESKGCPPPRIPSPEDIEALEEKVEQLSNPKDLRKLAVSLALWAFASWNNCPKKGKGTEGGVE
notes: Ribonucleoprotein complex that also holds the chimeric crRNA (Pfu 5'-handle, E. coli 3'-handle); also called I-A Pfu Cascade; apo Pfu Cascade
